Test results taken from US20160186238A1.

Molecular target: trypsin (bovine) (UniProt P00760)
Assay: trypsin activity inhibition, fluorogenic substrate Z-Arg-AMC, fit of activity vs inhibitor concentration

Chain of trypsin (bovine) (P00760 24-246): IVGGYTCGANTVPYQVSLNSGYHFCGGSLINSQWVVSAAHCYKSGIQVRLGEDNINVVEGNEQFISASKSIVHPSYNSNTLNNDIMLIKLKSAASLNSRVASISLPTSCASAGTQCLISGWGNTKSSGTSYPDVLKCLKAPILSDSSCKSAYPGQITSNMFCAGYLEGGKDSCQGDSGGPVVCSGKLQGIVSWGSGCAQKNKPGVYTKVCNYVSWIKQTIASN

Ki: 39.5 nM
Substance: antipain (peptide)
